Several values for one entry are separate records, joined by “and”; a condition that tells them apart may be missing. Equal entries are not always repeated. Where two headings read alike, the source gives them in different places.
Experiments:
SEC-SAXS [1] = biological target: the molecule itself; experiment: SEC-SAXS
SEC-SAXS [2] = biological target: the molecule itself; experiment: SEC-SAXS; remark: listed apart in the source

B1: C-phycocyanin (αβ) monomer from Spirulina platensis (complex)
chain 1: not shown
chain 2: MFDAFTKVVSQADTRGEMLSTAQIDALSQMVAESNKRLDAVNRITSNASTIVSNAARSLFAEQPQLIAPGGNAYTSRRMAACLRDMEIILRYVTYAVFAGDASVLEDRCLNGLRETYLALGTPGSSVAVGVGKMKEAALAIVNDPAGITPGDCSALASEIASYFDRACAAVS
modifications: open-chain tetrapyrrole chromophore cofactors attached covalently | open-chain tetrapyrrole chromophore cofactors attached covalently
- stoichiometry N (SEC-SAXS [1]): 3
- stoichiometry N (SEC-SAXS [2]): 12 and 24

From PMC9131392 (Biomacromolecules, 2021)
